Five substances from the supplement of paper PMC5998384 can be followed below.

Data set [1] has as its system HeLa Kyoto. Nature of the data set: solubility in G1/S (NP-40 vs SDS abundance) (log2 ratio); higher = more soluble. The conditions noted are these: cell cycle stage: G1/S.
For data set [2], the system named is HeLa Kyoto. Nature of the data set: melting temperature (median over replicates), in situ; higher = more thermally stable.
The subject of data set [3] is HeLa Kyoto. Nature of the data set: thermal stability score vs G1/S (z-score of summed log2 fold changes over temperatures); higher = more thermally stable than in G1/S.
Data set [4] relates to HeLa Kyoto. Nature of the data set: solubility change mitosis vs G1/S (difference of NP-40 vs SDS log2 ratios) (log2 ratio difference); higher = more soluble in mitosis.
Setting [5] is: cell cycle stage: early G1 (4.5 h after nocodazole release).
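For melting temperature (median over replicates), in situ in this document: HeLa Kyoto cells synchronized by double thymidine or nocodazole block, proteins quantified by TMT10plex mass spectrometry, three independent biological replicates.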
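For solubility change mitosis vs G1/S (difference of NP-40 vs SDS log2 ratios) in this document: synchronized HeLa Kyoto cells (double thymidine block for G1/S, nocodazole release for mitosis), protein amounts in NP-40 versus SDS lysates quantified by mass spectrometry, three biological replicates.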
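For solubility in G1/S (NP-40 vs SDS abundance) in this document: HeLa Kyoto cells arrested at G1/S by double thymidine block, proteins quantified by TMT10plex mass spectrometry in mild NP-40 versus SDS extracts, three biological replicates.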
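For thermal stability score vs G1/S (z-score of summed log2 fold changes over temperatures) in this document: synchronized HeLa Kyoto cells, proteins quantified by TMT10plex mass spectrometry, three biological replicates, mitosis taken 0.5 h after nocodazole release, G1/S directly after double thymidine block.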

Sequence of ITCH (chain, as listed by the source): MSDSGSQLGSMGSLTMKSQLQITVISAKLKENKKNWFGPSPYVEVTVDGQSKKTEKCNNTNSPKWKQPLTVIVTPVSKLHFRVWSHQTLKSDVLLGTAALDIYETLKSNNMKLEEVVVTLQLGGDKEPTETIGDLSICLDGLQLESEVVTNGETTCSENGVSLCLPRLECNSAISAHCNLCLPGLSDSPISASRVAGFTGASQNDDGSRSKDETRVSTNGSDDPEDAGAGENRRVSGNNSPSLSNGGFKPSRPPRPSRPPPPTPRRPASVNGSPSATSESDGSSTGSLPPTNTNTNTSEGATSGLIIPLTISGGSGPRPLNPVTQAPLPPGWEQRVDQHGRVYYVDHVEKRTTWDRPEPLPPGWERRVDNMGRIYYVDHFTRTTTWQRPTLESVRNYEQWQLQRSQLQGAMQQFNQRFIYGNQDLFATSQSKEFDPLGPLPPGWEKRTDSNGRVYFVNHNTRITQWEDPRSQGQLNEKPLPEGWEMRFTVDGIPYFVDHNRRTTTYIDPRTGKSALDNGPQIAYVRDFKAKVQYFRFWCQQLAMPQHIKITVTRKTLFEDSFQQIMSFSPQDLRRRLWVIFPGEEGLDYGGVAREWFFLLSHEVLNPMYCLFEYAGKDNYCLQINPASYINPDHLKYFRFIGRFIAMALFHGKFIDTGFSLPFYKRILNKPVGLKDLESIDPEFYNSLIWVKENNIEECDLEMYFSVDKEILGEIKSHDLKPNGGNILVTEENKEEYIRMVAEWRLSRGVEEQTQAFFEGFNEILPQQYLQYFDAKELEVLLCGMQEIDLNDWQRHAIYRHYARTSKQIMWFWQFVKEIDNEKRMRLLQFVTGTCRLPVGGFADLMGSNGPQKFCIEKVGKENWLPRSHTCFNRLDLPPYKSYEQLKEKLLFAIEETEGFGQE

As for “MLTNLRIFAMSHQTIPSVYINNICCYKIRASLKRLKPHVPLGRNCSSLPGLIGNDIKSLHSIINPPIAKIRNIGIMAHIDAGKTTTTERILYYSGYTRSLGDVDDGDTVTDFMAQERERGITIQSAAVTFDWKGYRVNLIDTPGHVDFTLEVERCLRVLDGAVAVFDASAGVEAQTLTVWRQADKHNIPRICFLNKMDKTGASFKYAVESIREKLKAKPLLLQLPIGEAKTFKGVVDVVMKEKLLWNCNSNDGKDFERKPLLEMNDPELLKETTEARNALIEQVADLDDEFADLVLEEFSENFDLLPAEKLQTAIHRVTLAQTAVPVLCGSALKNKGIQPLLDAVTMYLPSPEERNYEFLQWYKDDLCALAFKVLHDKQRGPLVFMRIYSGTIKPQLAIHNINGNCTERISRLLLPFADQHVEIPSLTAGNIALTVGLKHTATGDTIVSSKSSALAAARRAEREGEKKHRQNNEAERLLLAGVEIPEPVFFCTIEPPSLSKQPDLEHALKCLQREDPSLKVRLDPDSGQTVLCGMGELHIEIIHDRIKREYGLETYLGPLQVAYRETILNSVRATDTLDRTLGDKRHLVTVEVEARPIETSSVMPVIEFEYAESINEGLLKVSQEAIENGIHSACLQGPLLGSPIQDVAITLHSLTIHPGTSTTMISACVSRCVQKALKKADKQVLEPLMNLEVTVARDYLSPVLADLAQRRGNIQEIQTRQDNKVVIGFVPLAEIMGYSTVLRTLTSGSATFALELSTYQAMNPQDQNTLLNRRSGLT [GFM2]”, in the data set on HeLa Kyoto [1], the “solubility in G1/S (log2)” value was -0.0849. For the same substance, the melting temperature in the data set with HeLa Kyoto [2] (cell cycle stage: G1/S) was 49.2 °C; with HeLa Kyoto [2] (cell cycle stage: mitosis) it was 49.3 °C. The thermal stability score with HeLa Kyoto [3] (setting [5]) stood at 1.87; in the data set on HeLa Kyoto [3] (cell cycle stage: mitosis), 1.26. Further, the “solubility change mitosis (log2)” value with HeLa Kyoto [4] was -0.0596.
“MAKISSPTETERCIESLIAVFQKYAGKDGYNYTLSKTEFLSFMNTELAAFTKNQKDPGVLDRMMKKLDTNSDGQLDFSEFLNLIGGLAMACHDSFLKAVPSQKRT [S100A11]”: the “solubility in G1/S (log2)” value in the data set on HeLa Kyoto [1] is -1.04. The melting temperature with HeLa Kyoto [2] (cell cycle stage: G1/S) is 53.8 °C; in the data set with HeLa Kyoto [2] (cell cycle stage: mitosis), 52.6 °C. The thermal stability score in the data set on HeLa Kyoto [3] (setting [5]) was -4.03; with HeLa Kyoto [3] (cell cycle stage: mitosis), -4.13. In the data set with HeLa Kyoto [4], the “solubility change mitosis (log2)” value amounted to 0.343.
Regarding ITCH, in the data set with HeLa Kyoto [1], the “solubility in G1/S (log2)” value is -0.468. Further, the melting temperature came to 49.8 °C in the data set on HeLa Kyoto [2] (cell cycle stage: G1/S) and 51.6 °C with HeLa Kyoto [2] (cell cycle stage: mitosis). Also, the thermal stability score came to 0.594 in the data set on HeLa Kyoto [3] (setting [5]) and 0.999 in the data set on HeLa Kyoto [3] (cell cycle stage: mitosis). For the same substance, in the data set with HeLa Kyoto [4], the “solubility change mitosis (log2)” value stood at 0.0566.
For the substance “MDPFLVLLHSVSSSLSSSELTELKFLCLGRVGKRKLERVQSGLDLFSMLLEQNDLEPGHTELLRELLASLRRHDLLRRVDDFEAGAAAGAAPGEEDLCAAFNVICDNVGKDWRRLARQLKVSDTKIDSIEDRYPRNLTERVRESLRIWKNTEKENATVAHLVGALRSCQMNLVADLVQEVQQARDLQNRSGAMSPMSWNSDASTSEAS [FADD]”, the “solubility in G1/S (log2)” value in the data set with HeLa Kyoto [1] is -0.257. Also, the results for the melting temperature in the data set with HeLa Kyoto [2] (cell cycle stage: G1/S) and with HeLa Kyoto [2] (cell cycle stage: mitosis) were 52.3 °C and 49.4 °C, respectively. Also, the thermal stability score with HeLa Kyoto [3] (setting [5]) was -0.0741; in the data set on HeLa Kyoto [3] (cell cycle stage: mitosis) it was 1.4. In addition, the “solubility change mitosis (log2)” value in the data set with HeLa Kyoto [4] is -0.0735.
For the substance “MWNMLIVAMCLALLGCLQAQELQGHVSIILLGATGDLAKKYLWQGLFQLYLDEAGRGHSFSFHGAALTAPKQGQELMAKALESLSCPKDMAPSHCAEHKDQFLQLSQYRQLKTAEDYQALNKDIEAQLQHAGLREAGRIFYFSVPPFAYEDIARNINSSCRPGPGAWLRVVLEKPFGHDHFSAQQLATELGTFFQEEEMYRVDHYLGKQAVAQILPFRDQNRKALDGLWNRHHVERVEIIMKETVDAEGRTSFYEEYGVIRDVLQNHLTEVLTLVAMELPHNVSSAEAVLRHKLQVFQALRGLQRGSAVVGQYQSYSEQVRRELQKPDSFHSLTPTFAAVLVHIDNLRWEGVPFILMSGKALDERVGYARILFKNQACCVQSEKHWAAAQSQCLPRQLVFHIGHGDLGSPAVLVSRNLFRPSLPSSWKEMEGPPGLRLFGSPLSDYYAYSPVRERDAHSVLLSHIFHGRKNFFITTENLLASWNFWTPLLESLAHKAPRLYPGGAENGRLLDFEFSSGRLFFSQQQPEQLVPGPGPAPMPSDFQVLRAKYRESPLVSAWSEELISKLANDIEATAVRAVRRFGQFHLALSGGSSPVALFQQLATAHYGFPWAHTHLWLVDERCVPLSDPESNFQGLQAHLLQHVRIPYYNIHPMPVHLQQRLCAEEDQGAQIYAREISALVANSSFDLVLLGMGADGHTASLFPQSPTGLDGEQLVVLTTSPSQPHRRMSLSLPLINRAKKVAVLVMGRMKREITTLVSRVGHEPKKWPISGVLPHSGQLVWYMDYDAFLG [H6PD]”, the “solubility in G1/S (log2)” value in the data set on HeLa Kyoto [1] amounted to 0.122. Also, the values for the melting temperature with HeLa Kyoto [2] (cell cycle stage: G1/S) and in the data set with HeLa Kyoto [2] (cell cycle stage: mitosis) were 53.3 °C and 53.7 °C, respectively. For the same substance, the thermal stability score was found to be 1.01 with HeLa Kyoto [3] (setting [5]) and 2.18 in the data set with HeLa Kyoto [3] (cell cycle stage: mitosis). Also, in the data set with HeLa Kyoto [4], the “solubility change mitosis (log2)” value is 0.0207.
